Data as given in doi:10.1101/2020.10.05.326918 (bioRxiv, 2020).

B2: MED16 (natural protein, Mus musculus (endogenous in CH12 cells), UniProt Q6PGF3 1-828, looked up)
chain: MDLAYVCEWEKWAKSTYCPSLPLACAWSCRNLIAFTTDLRNDDQDLTHMIHILDTEHPWEVHSVSSGHSEAITCLEWDQSGSRLLSADADGQIKCWSMADHLANSWESSVGSQVEGDPIVALSWLHNGVKLALHVEKSGASSFGEKFSRVKFSPSLTLFGGKPMEGWIAVTVSGLVTVSLLKPSGQVLTSTESLCRLRGRVALADIAFTGGGNIVVAAADGSSASPVKFYKVCVSVVSEKCRIDTEILPSLFMRCTTDPNRKDRFPAITHLKFLARDMSEQVLLCASSQTSSLVECWSLRKEGLPVNNIFQQISPVVGDKQPMILKWRILSATNDLDRVSAVALPKLPISLTNTDLKVASDTQFYPGLGLALAFQDGSVHMVHRLSLQTMAVFYSSAPRSLDEPALKRPRTTCPAVHFKAMQLSWTSLALVGIDNHGKLSMLRISPSLGHPLEPKLALQHLLFLLEYCMVTGYDWWDILLHVQPGMVQSLVERLHEEYTRQKPALQQVLSTRILAMKASLCKLSPCTVARVCDYHTKLFLMAITSTLKSLLRPHFLNTPDKSPGDRLAEICAKITDVDIDKVMINLKTEEFVLDMNTLQALQQLLQWVGDFVLYLLVSLPNQGSPLRPGHSFLRDGTSLGMLRELMVVIRIWGLLKPSCLPVYTATSDTQDSMSLLFRLLTKLWICCRDEGAASEPDEGLVDECCLLPSQLLVPNLDWLPASDGLVSRLQPKQPLRLRFGRAPTLPSSTSTLQLDGLTRAPGQPKIDHLRRLHLGAYPTEECKACTRCGCVTMLKSPNKTTAVTQWEQRWIKNCLCGGLWRRVPLSCS

Columns and labels:
Assay in all cases: cryo-EM structure
MED14 = MED14 (Mus musculus (endogenous in CH12 cells), UniProt A2ABV5 1-1459)
Sequence of MED14 (A2ABV5 whole entry): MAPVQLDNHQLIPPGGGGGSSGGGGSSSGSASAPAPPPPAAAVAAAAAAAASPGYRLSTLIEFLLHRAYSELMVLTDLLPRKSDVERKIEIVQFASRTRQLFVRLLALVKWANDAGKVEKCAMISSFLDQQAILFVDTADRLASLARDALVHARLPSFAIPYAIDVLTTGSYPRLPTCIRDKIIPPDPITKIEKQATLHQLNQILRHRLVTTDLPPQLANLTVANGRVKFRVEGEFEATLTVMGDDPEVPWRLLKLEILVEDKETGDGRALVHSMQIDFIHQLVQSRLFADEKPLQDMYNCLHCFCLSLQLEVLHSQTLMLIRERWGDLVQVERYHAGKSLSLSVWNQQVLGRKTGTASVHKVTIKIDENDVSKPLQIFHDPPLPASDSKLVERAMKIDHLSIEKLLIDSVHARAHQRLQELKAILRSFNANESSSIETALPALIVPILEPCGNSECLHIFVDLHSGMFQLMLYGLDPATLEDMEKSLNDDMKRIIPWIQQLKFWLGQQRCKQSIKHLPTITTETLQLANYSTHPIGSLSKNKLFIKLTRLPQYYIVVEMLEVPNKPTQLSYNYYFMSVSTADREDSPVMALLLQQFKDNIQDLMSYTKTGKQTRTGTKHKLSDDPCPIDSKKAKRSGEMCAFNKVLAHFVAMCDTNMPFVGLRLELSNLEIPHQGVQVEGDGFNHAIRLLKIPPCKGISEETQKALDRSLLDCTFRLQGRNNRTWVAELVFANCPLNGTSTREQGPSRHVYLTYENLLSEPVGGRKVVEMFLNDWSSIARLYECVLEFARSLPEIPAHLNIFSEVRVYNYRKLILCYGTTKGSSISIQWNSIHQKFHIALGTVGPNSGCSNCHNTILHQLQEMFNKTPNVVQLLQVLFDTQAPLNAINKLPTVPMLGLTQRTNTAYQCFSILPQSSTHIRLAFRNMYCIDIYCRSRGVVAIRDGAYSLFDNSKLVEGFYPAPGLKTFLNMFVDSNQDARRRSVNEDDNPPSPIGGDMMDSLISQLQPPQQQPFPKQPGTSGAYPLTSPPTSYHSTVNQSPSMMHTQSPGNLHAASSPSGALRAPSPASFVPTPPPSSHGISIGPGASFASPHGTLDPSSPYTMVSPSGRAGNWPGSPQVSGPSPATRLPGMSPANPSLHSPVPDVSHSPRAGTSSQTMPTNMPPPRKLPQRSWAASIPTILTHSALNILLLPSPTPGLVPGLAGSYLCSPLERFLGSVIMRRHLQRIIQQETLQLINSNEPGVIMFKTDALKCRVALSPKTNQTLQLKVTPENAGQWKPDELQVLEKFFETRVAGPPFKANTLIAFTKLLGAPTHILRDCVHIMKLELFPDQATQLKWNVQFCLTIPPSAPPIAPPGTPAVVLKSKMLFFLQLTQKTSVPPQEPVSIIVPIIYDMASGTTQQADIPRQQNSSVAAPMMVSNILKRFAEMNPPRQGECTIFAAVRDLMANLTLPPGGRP

MED24 = biological target: T1, MED24 (Mus musculus (endogenous in CH12 cells), UniProt Q99K74 1-987)
T1 sequence (looked up): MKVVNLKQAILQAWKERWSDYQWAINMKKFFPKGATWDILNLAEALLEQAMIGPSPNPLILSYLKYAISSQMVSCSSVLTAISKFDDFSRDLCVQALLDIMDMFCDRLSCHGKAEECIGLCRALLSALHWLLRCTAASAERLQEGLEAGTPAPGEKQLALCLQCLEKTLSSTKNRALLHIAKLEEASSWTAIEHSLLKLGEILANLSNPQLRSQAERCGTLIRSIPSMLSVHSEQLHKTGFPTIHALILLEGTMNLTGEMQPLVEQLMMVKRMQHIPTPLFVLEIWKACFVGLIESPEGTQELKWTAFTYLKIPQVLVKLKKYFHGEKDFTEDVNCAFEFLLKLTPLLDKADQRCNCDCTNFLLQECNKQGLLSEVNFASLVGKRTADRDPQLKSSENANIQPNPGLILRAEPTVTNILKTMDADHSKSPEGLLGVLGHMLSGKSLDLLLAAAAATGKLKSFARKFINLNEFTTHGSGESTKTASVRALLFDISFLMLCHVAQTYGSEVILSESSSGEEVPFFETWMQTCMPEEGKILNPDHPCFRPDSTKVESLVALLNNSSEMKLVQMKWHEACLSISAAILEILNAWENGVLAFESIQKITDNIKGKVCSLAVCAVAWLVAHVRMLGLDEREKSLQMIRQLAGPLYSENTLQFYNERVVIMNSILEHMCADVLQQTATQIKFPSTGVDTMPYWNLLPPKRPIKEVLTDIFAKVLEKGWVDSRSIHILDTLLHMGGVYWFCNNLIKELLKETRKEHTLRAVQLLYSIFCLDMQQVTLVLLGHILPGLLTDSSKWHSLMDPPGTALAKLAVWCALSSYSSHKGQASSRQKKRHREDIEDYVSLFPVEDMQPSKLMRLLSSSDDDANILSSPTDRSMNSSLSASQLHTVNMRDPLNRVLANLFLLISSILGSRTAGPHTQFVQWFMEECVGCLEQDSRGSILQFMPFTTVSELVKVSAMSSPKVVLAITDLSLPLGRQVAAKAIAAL

MED16 = biological target: B2
MED23 = biological target: T2, MED23 (Mus musculus (endogenous in CH12 cells), UniProt Q80YQ2 1-1367)
T2 sequence (looked up): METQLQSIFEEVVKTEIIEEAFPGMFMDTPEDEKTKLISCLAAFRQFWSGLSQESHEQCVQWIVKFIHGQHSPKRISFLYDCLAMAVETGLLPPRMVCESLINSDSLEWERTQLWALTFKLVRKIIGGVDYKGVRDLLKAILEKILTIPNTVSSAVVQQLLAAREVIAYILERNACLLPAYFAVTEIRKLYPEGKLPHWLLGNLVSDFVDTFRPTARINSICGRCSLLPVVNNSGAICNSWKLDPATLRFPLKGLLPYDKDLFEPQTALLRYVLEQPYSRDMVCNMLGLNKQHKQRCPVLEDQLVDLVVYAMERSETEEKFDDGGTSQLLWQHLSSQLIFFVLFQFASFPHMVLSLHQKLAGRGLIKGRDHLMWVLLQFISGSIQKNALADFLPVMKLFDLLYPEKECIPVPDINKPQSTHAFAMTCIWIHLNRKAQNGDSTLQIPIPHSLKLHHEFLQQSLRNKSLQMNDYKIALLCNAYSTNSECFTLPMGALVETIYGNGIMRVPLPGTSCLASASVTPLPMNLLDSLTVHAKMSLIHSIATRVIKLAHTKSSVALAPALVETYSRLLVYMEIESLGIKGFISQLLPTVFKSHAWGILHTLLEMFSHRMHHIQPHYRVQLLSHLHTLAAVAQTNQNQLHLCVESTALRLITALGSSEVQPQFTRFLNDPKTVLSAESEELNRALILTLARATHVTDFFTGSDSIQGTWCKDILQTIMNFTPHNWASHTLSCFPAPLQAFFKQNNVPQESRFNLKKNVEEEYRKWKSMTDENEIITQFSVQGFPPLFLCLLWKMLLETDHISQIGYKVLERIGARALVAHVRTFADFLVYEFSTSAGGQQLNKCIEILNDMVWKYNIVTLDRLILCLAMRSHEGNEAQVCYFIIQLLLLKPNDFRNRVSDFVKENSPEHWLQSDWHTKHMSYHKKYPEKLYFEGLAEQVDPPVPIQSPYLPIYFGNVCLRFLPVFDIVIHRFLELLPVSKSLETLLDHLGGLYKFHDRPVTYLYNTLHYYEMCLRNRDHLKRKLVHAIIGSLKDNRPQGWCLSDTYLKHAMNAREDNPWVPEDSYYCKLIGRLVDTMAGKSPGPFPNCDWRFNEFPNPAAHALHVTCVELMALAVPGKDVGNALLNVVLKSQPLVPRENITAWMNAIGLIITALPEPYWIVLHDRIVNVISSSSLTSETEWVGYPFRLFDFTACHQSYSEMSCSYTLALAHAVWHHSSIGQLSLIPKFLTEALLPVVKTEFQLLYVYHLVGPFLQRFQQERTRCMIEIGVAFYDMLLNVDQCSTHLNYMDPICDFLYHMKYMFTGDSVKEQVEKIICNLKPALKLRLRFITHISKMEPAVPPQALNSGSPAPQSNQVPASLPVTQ

Measured: binding result

B1: MED15 (natural protein, Mus musculus (endogenous in CH12 cells), UniProt Q924H2 1-789, looked up)
chain: MDVSGQETDWRSAAFRQKLVSQIEDAMRKAGVAHSKSSKDMESHVFLKAKTRDEYLSLVARLIIHFRDIHNKKSQASVSDPMNALQSLTGGPTPGAAGIGMPPRGPGQSLGGMGGLGAMGQPLPLSGQPPPGTSGMAPHGMAVVSTATPQTQLQLQQVALQQQQQQQQQQQFQQQQAALQQQQQQQQQQQQQQQFQAQQNAMQQQFQAVVQQQQLQQQQQQQHLIKLHHQSQQQQIQQQQLQRMAQLQLQQQQQQQQQQALQAQPPMQQPSMQQPQPPPSQALPQQLSQLHHPQHHQPPPQAQQSPIAQNQPPQIPPQSQSQPLVSQAQALPGPMLYAAQQQLKFVRAPMVVQQPQVQPQVQQVQPQVQPQAAVQAAQSAQMVAPGVQMIAEALAQGGMHVRARFPPTSTMSAGPSSSISLGGQPTTQVSQSSLTMLSSPSPGQQVQTPQSMPPPPQPSPQPGSQPNSNVSSGPAPSPSSFLPSPSPQPSQSPVTARTPQNFSVPSPGPLNTPVNPSSVMSPAGSSQAEEQQYLDKLKQLSKYIEPLRRMINKIDKNEDRKKDLSKMKSLLDILTDPSKRCPLKTLQKCEIALEKLKNDMAVPTPPPPPVLPTKQQDLCQPLLDAVLANIRSPVFNHSLYRTFVPAMMAIHGPPIVSPVVCSRKRRFEEDERQSIPNVLQGEVARLDPKFLVNLDPSHCSNNGTVHLICKLDDKDLPSVPPLELSVPADYPAQSPMWIDRQWQYDANPFLQSVHRCMTSRLLQLPDKHSVTALLNTWAQSIHQACLSAA
binds: all assays above

B2
binds: MED24 | MED23

B3: MED25 (natural protein, Mus musculus (endogenous in CH12 cells), UniProt Q8VCB2 1-745, looked up)
chain: MVPGSEGPARAGGLVADVVFVIEGTANLGPYFEELRKHYLLPAIEYFNGGPPAETDFGGDYGGTQYSLVVFNTVDCAPESYVQCHAPTSSAYEFVTWLDGIKFMGGGGESCSLIAEGLSTALQLFDDFKKMREQIGQTHRVCLLICNSPPYLLPAVESTTYSGCTTESLVQKIGERGIHFSIVSPRKLPALRLLFEKAAPPALLEPLQQPADVSQDPRHMVLVRGLVLPVGGSSTSGSLQTKQAVPLPPAPASAATLSAAPPQALPPVPPQYQVPGNLSAAQVAAQNAVEAAKSQKAGLGPRFSPINPLQQAAPGVGPPFSQAPAPPLAPVPPGAPKPPPASQPSLVSTVAPGPVLAAPAQPGAPSLAGTVTPGGVNGPSAAQLGGPALGGQQSVSNKLLAWSGVLEWQEKPKPASVDANTKLTRSLPCQVYVNHGENLKTEQWPQKLIMQLIPQQLLTTLGPLFRNSRMVQFHFTNKDLESLKGLYRIMGNGFAGCVHFPHTAPCEVRVLMLLYSSKKKIFMGLIPYDQSGFVNGIRQVITNHKQVQQQKLEQQRGMGAQQAPPVLGPILEEQARPPQNLLQLRAPQPQPQGAVGASAATGQPQPQGATQAPTGAPQGPPGAAPGPPPSGPILRPQNPGANPQLRSLLLNPAPPQTGVPPPQASLHHLQPPGAPTLLPPHQSMGQPQLGPQLLHPPPAQSWPTQLPQRAPLPGQMLLSGGPRGPVPQPGLQPSVMEDDILMDLI
binds: MED24 | MED16 | MED23
